The results in this text go back to the supplement of paper PMC9170038.

Series [1] has as its system MS2 coat protein. The series can be described thus: apparent KD of MS2 coat protein, switch ON state; designed switch direction (-1 OFF switch, 1 ON switch): -1; higher = weaker reporter binding. The note with it: FMN input: 0 or 200 uM; Eterna round: R93 (includes R88 designs). The procedure, abridged:
(§1)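 Apparent KD is reported per design as the median of normalised binding-curve fits across its clusters. The RNA switches were made by on-chip transcription from Illumina sequencing clusters. SNAP-549-labelled MS2 coat protein was then added in twofold steps (0.7 or 1.5 nM to 3 µM; 0.8–1.5 h to 10–20 min per step) in 100 mM Tris-HCl pH 7.5, 80 mM KCl, 4 mM MgCl2, without or with constant ligand.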

For series [2], the system named is MS2 coat protein. Description: apparent KD of MS2 coat protein, switch OFF state (with FMN for OFF switches, without FMN for ON switches); designed switch direction (-1 OFF switch, 1 ON switch): -1; higher = weaker reporter binding. The note with it: FMN input: 0 or 200 uM; Eterna round: R93 (includes R88 designs). Put shortly: as §1
For series [3], the system named is MS2 coat protein. The series can be described thus: apparent KD of MS2 coat protein; designed switch direction (-1 OFF switch, 1 ON switch): 1; higher = weaker reporter binding. The procedure, abridged: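 Each step of the titration lasted 0.8–1.5 h at the lowest concentration and 10–20 min at the highest. The protein, SNAP-549-labelled MS2 coat protein, went from 0.7 or 1.5 nM doubling to 3 µM over RNA switches transcribed on Illumina chips by stalled E. coli RNA polymerase. Normalised cluster fluorescence was curve-fitted, and the per-design median over clusters is given as apparent KD.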

Where [4] appears, read: input ligand: microRNA oligo, concentration not stated.
The mark [5] stands for this setting: Eterna round: R95, input ligand: FMN 200 uM.
Setting [6] is: Eterna round: R95, input ligand: microRNA oligo, concentration not stated.
Where [7] appears, read: Eterna round: R95, input ligand: none.

Consider “AAAAAACAUGAGGAUCACCCAUGUAAGGAUAUGCAAAAAAAAAAAAUAAAAAAAAAAAGCAGAAGGUACAUAGA [Starry Exclusion 1.7 (wbt round 1 mod)]”, for which the “apparent KD of MS2 coat protein” value with MS2 coat protein [1] is 36.6 nM; in the series with MS2 coat protein [2], 40.6 nM.
The like results for “AAAAAACAUGAGGAUCACCCAUGUAAGGAUAUGCUAAAAAACGCAAAAAAAGCGAAUAGCAGAAGGUACAAAAA [66%, Wbt, 29]” were, in that order, 19.4 nM and 35.9 nM.
The like results for “AAAAAACAUGAGGAUCACCCAUGUAAGGAUAUGCUGAAAAACACGGAAAAACGUGACAGCAGAAGGUACAAAAG [Mat - Exclusion 1 - Eli mod - D93]” were, in that order, 11.8 nM and 84 nM.
The like results for “AAAAAACAUGAGGAUCACCCAUGUCAGGAUAUCCGAAAAAAAAAAAAAAAAAAACCUUGGAGAAGGGACAUUCC [Chica Displaced 6 - Jieux - Exclusion 1]” were, in that order, 37.2 nM and 34.4 nM.
With “AAAAAACAUGAGGAUCACCCAUGUCAGGAUAUCUGUAUUCAAUCCUCGGAUUGAAUACAGAGAAGGGACAUGAA [Ex1: 603]”, the “apparent KD of MS2 coat protein” value was determined as 41.3 nM in the series with MS2 coat protein [1] and 110 nM in the series with MS2 coat protein [2].
The like results for “AAAAAACAUGAGGAUCACCCAUGUGAGGAUAUACAAAACCCAUAUAAAAAGGGAAAAAGUAGAAGGCACAAAAA [wbt round 1 mod 11]” were, in that order, 27.5 nM and 33.9 nM.
The like results for “AAAAAACAUGAGGAUCACCCAUGUGAGGAUAUCUGUAUCCAAAAGGAAGUGUAGGAUCAGAGAAGGCACUAGGA [Power strip]” were, in that order, 40.1 nM and 83.8 nM.
“AAAAAACAUGAGGAUCACCCAUGUGAGGAUAUGAUGCGAAUAAAGAAAGAAUAAAGCAUCAGAAGGCACAAAAA [Mat - Exclusion 1 - Eli mod - D62]”: the “apparent KD of MS2 coat protein” value in the series with MS2 coat protein [1] is 36.4 nM; in the series on MS2 coat protein [2], 49.6 nM.
As for “AAAAAACAUGAGGAUCACCCAUGUGAGGAUAUGCAAUAAAAAAUAAAAAUAAAACAUAGCAGAAGGCACACCAA [Amethyst 58]”, the “apparent KD of MS2 coat protein” value with MS2 coat protein [1] is 26.6 nM; in the series with MS2 coat protein [2] it was 31.8 nM.
With “AAAAAACAUGAGGAUCACCCAUGUUAGGAUAUUCCUAAAAAAAAAAAAAAAAAAAAUGGAAGAAGGAACAAAAA [excalibur10]”, the “apparent KD of MS2 coat protein” value was found to be 23.5 nM in the series on MS2 coat protein [1] and 30.2 nM in the series on MS2 coat protein [2].
In the same order, the values of “AAAAAAGCAGGAUAUACGAACAUGUCGAAAGACGUGAAGGGACAUGAGGAUCACCCAUGUAGAAGGGUUAAGAA [Mat - Exclusion 2 - JL mod - D75]” are 166 nM and 55 nM.
The like results for “AAAAAAGGAGGAUAUACAUGAGGAUCACCCAUGUAAAAAGGGAAAAAAAAAAAAAAAAGUAGAAGGCCUAAAAA [JR_Exc003_Sub1701]” were, in that order, 41.7 nM and 65.1 nM.
For “AAAAAAUAAGGAUAUACAUUUCGGGAAAUUUUUACAAAAAAACAUGAGGAUCACCCAUGUAGAAGGUAUAAAAA [Exclusion 2]”, the “apparent KD of MS2 coat protein” value in the series with MS2 coat protein [1] was determined as 18.6 nM; with MS2 coat protein [2], 17.7 nM.
On to “AAAAACCAAGGAUAUACAUGAGGAUCACCCAUGUAAAAAAAAAAAAAGGGAAAAAAAAGUAGAAGGUGGAAAAA [Sekhemre Shedtawy Sobekemsaf II]”, for which the results for the “apparent KD of MS2 coat protein” value in the series with MS2 coat protein [1] and in the series with MS2 coat protein [2] were 20.9 nM and 38.6 nM, respectively.
For the sequence “AAAAACCUAGGAUAUACAUGAGGAUCACCCAUGUAAAAAAAAAAAAAGGGAAAAAAAAGUAGAAGGAGGAAAAA [Sekhemre Wadjkhaw Sobekemsaf I]”, the “apparent KD of MS2 coat protein” value in the series with MS2 coat protein [1] was found to be 20.6 nM; with MS2 coat protein [2], 24.9 nM.
For “AAAAACGGAGGAUAUACAUGAGGAUCACCCAUGUAAAAAAAAAAAAAGGGAAAAAAAAGUAGAAGGCCGAAAAA [Sekhemrekhutawy Pantjeny]”, the “apparent KD of MS2 coat protein” value in the series on MS2 coat protein [1] worked out at 39.1 nM; in the series on MS2 coat protein [2], 71.2 nM.
Consider “AAAAAGAGAGGAUAUACAUGAGGAUCACCCAUGUGAAAGACGAAAAAAAGUCAAAAAAGUAGAAGGCUCAAAAA [65%, Moding Exclusion3-cac2, 15]”, for which the “apparent KD of MS2 coat protein” value in the series on MS2 coat protein [1] was 23.8 nM; with MS2 coat protein [2], 25.4 nM.
Regarding “AAAAAGAGAGGAUAUACAUGAGGAUCACCCAUGUGACACAAAAUAAAUAAAAUAAAGUGUAGAAGGCUCAAAAA [65%, Moding Exclusion3-cac2, 20]”, the “apparent KD of MS2 coat protein” value with MS2 coat protein [1] amounted to 23.8 nM; with MS2 coat protein [2], 78.2 nM.
For “AAAAAGAGAGGAUAUACAUGAGGAUCACCCAUGUGACAUAAAAUAAAUAAAAUAAAGUGUAGAAGGCUCAAAAA [65%, Moding Exclusion3-cac2, 21]”, the “apparent KD of MS2 coat protein” value with MS2 coat protein [1] was 41.7 nM; in the series with MS2 coat protein [2], 104 nM.
In the same order, the values of “AAAAAGAGAGGAUAUGCAGGAGGUAAGGUCGAAAAAAAAAAACAUGAGGAUCACCCAUGUAGAAGGUUUAAAAA [Ecls2-VII]” are 23.6 nM and 23.9 nM.
In the same order, the values of “AAAAAGAUAGGAUAUACGAACAUGUCGAAAGACGUGAAGGGACAUGAGGAUCACCCAUGUAGAAGGGUUAAAAA [Mat - Exclusion 2 - JL mod - D88]” are 149 nM and 50 nM.
As for “UUGAAGAAUUAAGGAUAUUGAGUACAUAUGUAAAACAUGAGGAUCACCCAUGUGGGUUGCGGUAUCGAGAAGGUAAAUUACUAG [Mat - same State NG 2 - JL mod - D69] (Eterna round: R96, puzzle: Same State NG 2)”, the “apparent KD of MS2 coat protein” value came to 69.9 nM with MS2 coat protein [3] (input ligand: FMN 200 uM), 66.2 nM with MS2 coat protein [3] (setting [4]) and 65.9 nM in the series with MS2 coat protein [3] (input ligand: none).
In the same order, the values of “UUGAAUAAUUAAGGAUAUCGAGUACAUAUGUUAAACAUGAGGAUCACCCAUGUGGGUUGCGGUAUCGAGAAGGUAAAAGAAAAG [Mat - Same State NG 2 - JL mod - D60] (Eterna round: R96, puzzle: Same State NG 2)” are 32.6 nM, 21.9 nM and 35.8 nM.
In the case of “UUGCUCAUGUAAGGAUAUGCAGCCGUUUCGGCUGCAGAAGGUACUAUAAUACAUGAGGAUCACCCAUGUCUCUAUUAUUUAGUG [salish99_SSNG1_r04_924] (Eterna round: R96, puzzle: Same State NG 1)”, the “apparent KD of MS2 coat protein” value in the series with MS2 coat protein [3] (input ligand: FMN 200 uM) worked out at 78.6 nM; in the series with MS2 coat protein [3] (setting [4]) it was 43.8 nM; in the series with MS2 coat protein [3] (input ligand: none) it was 59.8 nM.
The like results for “UUGCUCGUGUGAGGAUAUGCAGCCGUUUCGGCUGCAGAAGGUACUAUAAUACAUGAGGAUCACCCAUGUCUCUGUUGUUUAGUG [salish99_SSNG1_r04_928] (Eterna round: R96, puzzle: Same State NG 1)” were, in that order, 34 nM, 27.8 nM and 39.2 nM.
Regarding “UUGGUGUAGAUACAGGAUAUGUUGCUCGUAACAUGAGGAUCACCCAUGUAUCUAUGAGAUUAAAUGCAGAAGGGUGCACAUCACU [salish99_ss2_r3_088] (puzzle: Same State 2)”, the results for the “apparent KD of MS2 coat protein” value with MS2 coat protein [3] (setting [5]), with MS2 coat protein [3] (setting [6]) and in the series with MS2 coat protein [3] (setting [7]) were 121 nM, 54.2 nM and 329 nM, respectively.
Regarding “UUGUUUCGUCAUUAACAUGAGGAUCACCCAUGUAUUGACCCAGAGGAUAUGCAUGUUUGAUUGUAGCAGAAGGCUGAUUGUUGU [JR_SSNG3_Sub032] (Eterna round: R96, puzzle: Same State NG 3)”, the results for the “apparent KD of MS2 coat protein” value with MS2 coat protein [3] (input ligand: FMN 200 uM), with MS2 coat protein [3] (setting [4]) and in the series on MS2 coat protein [3] (input ligand: none) were 13.7 nM, 27 nM and 26.3 nM, respectively.
For “UUUAGGAACGGGCAGGAUAUGUAUUAAAAUACAUGAGGAUCACCCAUGUGCGGGUAUAACACCCGACAGAAGGGCCAAUCGUUCC [Laonerce - 9] (puzzle: Same State 2)”, the “apparent KD of MS2 coat protein” value is 22.7 nM in the series with MS2 coat protein [3] (setting [5]), 170 nM in the series on MS2 coat protein [3] (setting [6]) and 231 nM in the series on MS2 coat protein [3] (setting [7]).
In the case of “UUUAGUUGCGGGCAGGAUAUGUAUUAAAAUACAUGAGGAUCACCCAUGUGCGGGUAUAACACCCGGCAGAAGGGCCAAUCGCGAC [Laonerce - 3] (puzzle: Same State 2)”, the “apparent KD of MS2 coat protein” value was 34.2 nM with MS2 coat protein [3] (setting [5]), 191 nM in the series on MS2 coat protein [3] (setting [6]) and 296 nM with MS2 coat protein [3] (setting [7]).
As to “UUUAUAUUCAGAGGAUAUUAAUGUUGUAUAAUAUAAGAAGGCUGUUUGUUUUGUAAAGUUAUUAUACAUGAGGAUCACCCAUGU [JR_SSNG1_Sub082] (Eterna round: R96, puzzle: Same State NG 1)”, the “apparent KD of MS2 coat protein” value with MS2 coat protein [3] (setting [4]) turned out to be 15.5 nM.
Still for that read-out and setting: as for “UUUAUAUUCAGAGGAUAUUGAUGUUGUAUUUUACAAGAAGGCUGUUUGUUUUGUAAUGUUAUUAUACAUGAGGAUCACCCAUGU [JR_SSNG1_Sub015] (Eterna round: R96, puzzle: Same State NG 1)”, the figure is 16.8 nM.
For the sequence “UUUGGGUGGCUGGAGGAUAUUCUAGUGGUUACAUGAGGAUCACCCAUGUGUCGCGCGGUACGCGAGGAGAAGGCUGGCGGCCGUU (puzzle: Same State 2)”, the “apparent KD of MS2 coat protein” value with MS2 coat protein [3] (setting [6]) was 83.5 nM.
Still for that read-out and setting: as for “UUUGGGUGGCUGGAGGAUAUUCUUGUGGUUACAUGAGGAUCACCCAUGUGUCGCGCGGUGCGCGAGGAGAAGGCUGGCGGCCGUU (puzzle: Same State 2)”, the figure is 186 nM.
